Experiment: soluble on expression in E. coli; label from the status in PepcDB or PDB records

Sequence | soluble on expression in E. coli
MYKDYPAAYQVSKGAALQVDTAFYERLRANAQQRTLVEQFEVPIRTGRAWKVKAGQVFRVTTPAGPQVGDFNVWNAHDPRERLWAARTRQLQGAHVSTHDRLWSNLPFLRPLVTITDDSLASYGIDEHGGRLHDLLGTRCDPYVKKMLTGEDFHHHCHSNLTRAVLPHGLTEFDVHDVLNIFQCTGLNHDDMYFMKACPAQKGDYLEFFAEIDLLCALSTCPGGDLSLPMWGPDAQDPLSVCRPLGVEIYNLDAALLEGWQSPERAAYNGLHGLQIAKVDWEKLEHHHHHH | not soluble
MHNIYFYKDKNGNEPVFDYMRELTSKKGKDSRIKLNKINDYIELLSQHGTRAGEPYIKHLDAEIWELRPLRDRILFVAWMDGSFVLLHHFMKRTQKTPKREIEQAKRELADLKERGLDNEK | not soluble
MKWDEIGKNIAKEIEKEILPYFGRKDKSYVVGTSPSGDETEIFDKISEDIALKYLKSLNVNIVSEELGVIDNSSEWTVVIDPIDGSFNFINGIPFFAFCFGVFKNNEPYYGLTYEFLTKSFYEAYKGKGAYLNGRKIKVKDFNPNNIVISYYPSKKIDLEKLRNKVKRVRIFGAFGLEMCYVAKGTLDAVFDVRPKVRAVDIASSYIICKEAGALITDENGDELKFDLNATDRLNIIVANSKEMLDIILDLL | soluble
AVVNTDDYVTRTSIFYHAGSSRLLTVGDPYFRVPAGGGNKQDIPKVSAYQYRVFRVQLPDPNKFGLPDTSIYNPETQRLVWACAGVEIGRGQPLGVGLSGHPFYNKLDDTESSHAATSNVSEDVRDNVSVDYKQTQLCILGCAPAIGEHWAKGTASKSRPLSQGDCPPLELKNTVLEDGDMVDTGYGAMDFSTLQDTKCEVPLDICQSICKYPDYLQMSADPYGDSMFFCLRREQLFARHFWNRAGTMGDTVPQSLYIKGTGMRASPGSCVYSPSPSGSIVTSDSQLFNKPYWLHKAQGHNNGVCWHNQLFVTVVDTTRSTNLTICASTQSPVPGQYDATKFKQYSRHVEEYDLQFIFQLCTITLTADVMSYIQSMNSSILEDWNGGSGGNKDPYDKLKFWNVDLKEKFSLDLDQYPLGRKFLVQAGL | soluble
MGSDKIHHHHHHMMSDASLPALTLPPALRRVLPAARWERVTEGESGAGVWRSTRFVVKVQSRTLYPASTLLQERERLRWFAGRLPVPQVVAYEDDGEQEYLAMTRLPGIAMSHPDAALHPERMVNLLARALRELHALPVRDCPFNMSLGVRLKLARERVAAGVVDESDFDEERQGQSAVQVFNQLARTRPAEEDLVVTHGDACLPNVIVQGEYVEGLIDLGRAGIADRHMDLALAWRSTRRNLGATYAGMLLDLYGRELVDEGKLAYYQLLDELF | not soluble
MKNIYVETYGCALNRADTYVMMTLLKSEGYNFVENPENADIIILNTCAVRLETEERMKQRIKELNTLSKKLVVAGCMSSAEPATVLSIAPNASLIGPQSVERIVDIVKSEERKIVIEGDRALITPRTFDGKIAIIPVADGCAGNCSFCITKLARRKLRSYPLREIVNAARDAIQSGAREIELTGQDTAAYGLDLGGSISLVDVVNKVADIDGDFMIRIGMMTPEQAMRIMDDLIEAIRNPKVYKFIHLPVQSGDDRVLKLMNRKYTVDEYKELISEIRHKIPFVNITTDIIVGHPGEDEEAFNNTLLLMKELRFERIHLAMYSIRPNTRSASMPQVPDSIKKKRIQIANKLYEDLALSIHLDYVGSTSRVITTELGRKGSVIGRLMNYIPVVIRSENVELGKWYDVKITEASFYDLRGILALEHHHHHH | soluble
MIVTVTMNPSIDISYLLDHLKLDTVNRTSQVTKTPGGKGLNVTRVIHDLGGDVIATGVLGGFHGAFIANELKKANIPQAFTSIKEETRDSIAILHEGNQTEILEAGPTVSPEEISNFLENFDQLIKQAEIVTISGSLAKGLPSDFYQELVQKAHAQEVKVLLDTSGDSLRQVLQGPWKPYLIKPNLEELEGLLGQDFSENPLAAVQTALTKPMFAGIEWIVISLGKDGAIAKHHDQFYRVKIPTIQAKNPVGSGDATIAGLAYGLAKDAPAAELLKWGMAAGMANAQERMTGHVDVENVKKHLMNIQVVEIAK | not soluble
MSEQKRRTIQIAISEDHYEELQKALELLKGTQLPFSTTVEQFVELILSNYVATSNKISSLAKSGFDVASLQQELEKIGNLSGVDDNLKGFLSELLKTSRNGFSNPNKDGKKNDDDNNSSSKS | soluble
MGSDKIHHHHHHMAGSLIERTLRVLETLSSEPDGIPLQRLAERLEIPKSAAHRICNELGRQGYVRQETRTGHYRLSTRLIALGFRYLGSTGASDVLQPILDRLADETGELVRLGVIEGDRQTWIAKAQGTRTGLRYDPDMGREAPLRYTASGQAWLASLDDQAALALLERQGHHNPEHFGPNAPRTDYELLDRLALARERGYTCCVDSSALGTSAFGAVIRHPMQGHTIGVISVAGPSVRLTEDRMHELAPKLLQAVEELSQCSQASQLFSE | not soluble
MKKFDVAIVGGGLAGLTASIYLAKVGRKVIVLEKSSQFGGRGMTTNKNGICMNLGAHALYRGGAAFITFNELGMTLPGGIPSTKAHGIWKGDIFTIPTDFRSILSTPLLSWSAKVQFSRLMIRLGNLDVGEVPKMSLTTWAENEIKDPMVRNIFYALCRTTTYTFAPTIQLASSVLKQIQLSIKEGVLYVDGGWETIITKLRAIANDIGVQFLAKKHVVEIEHSEGKQRIHCVDDEVFEVGTVIVTTPPKEACKIIKGAEGTSLHKWSEQSVPVTVGALDIGLRQLPNPTHQFVLGLDQPIFFTNQSRAAKLSEDGSIAVSLIKYHNPVLEMNHIHEDKEQLESTMELLHSNWKREVVAQQYLPKITVVHDFPHIDRVEKPGPNIPEMPGVYVAGDWAGHDEILADAAVASGKRAALHILKQYESEAVHHGNGAVILEHHHHHH | soluble
MSAKRCASYYNATIKQESDYPELEGDIHVDVTIIGGGFTGVATAVELSEKGYKVALLEANKIAWGATGRNGGQVTGSLSGDAAMTKQLRRHLGQDAEDYVWNLRWRGHDIIKNRVAKYGIDCDLKFGHIQTAYHPGHMQELQQMFDEANRRGMGEFMTLVPAQEMSAYLASPLYHGGLVNRRNMHLHSVNLCLGEARAAASLGAQIFEHSQVLDIQQAELATVVTPKGTVKANSVLIAGNAYHKLGRPKLRGMLFPASLGNCATAKLPEELAKQLNPQNLAVYDCRFVLDYYRLTADNRLMFGGGTNYSGRDPKNVAAELRPAIERTFPQLKGVDIEFAWAGMAGIVINRIPQLGKISPNIFYCQGYSGHGVATSHIMAEIMGQAIDGQMQEFDLFAAMRHIRIPLNEWFGNQALALGMLYYTLRENWRLEHHHHHH | not soluble
MGSDKIHHHHHHMSKLKDYNIDKVIIFNNLSTKTKNQLKEKVKLKRLQKKEILFYEKDSLDSVYILLEGKVSIFKISENGERKVIFILNSGEVINDITLDASKNSTVGCEAFENSIVAYYSIEEFLEIMQNDFQLTKDIISYMERRIRRLYRQLKNSISIKVDKKLAAKLYRLSREFGVCCGEWTLLNVNITVTYLADMLGCKRETVSRMIKVLQKEELIKIDNKGFYVKETELSRYFKNN | not soluble
MRKIQVGVTGMTCAACSNSVEAALMNVNGVFKASVALLQNRADVVFDPNLVKEEDIKEEIEDAGFEAEILAEEW | soluble
MSLSWDQVWIDVNVATMDPSISAPYGAITNAAIAVKDGKIAWLGPRSELPAFDVLSIPVYRGKGGWITPGLIDAHTHLVFAGNRANEFELRLKGATYEEIARAGGGIISTVNACREADEAELFDLGRQRLNALAKEGVTTVEIKSGYGLDTETELKILRVARELGQHHHVDVKTTFLGAHAVPPEFKDNSDGYVDLIINKMLPAVIAENLADAVDVFCENIAFNLEQTERVLSTAKAAGLQVKLHAEQLSNMGGSELAARLGAKSVDHIEYLDEAGVKALSESGTCAVLLPGAFYFLRETQKPPIDLLRQYGVPMVLASDFNPGSSPICSTLLMLNMGCTLFRLTPEEALAGLTLNAAKALGIEDNVGSLVVGKQADFCLWDIATPAQLAYSYGVNPCKDVVKNGKLIHQEGHHHHHH | soluble
MSSETFYKTQQDLRKAESHASHAAGGNTPANSNVSAMKVTPNLLIQFGDTAANSTNQSIVDEHTDKAKAIEERKANLPLPDQPPVASDWQSADQRAVNVGSGGVQGSVSGESNTALRDPATAGSSARMSGEELHKETQPTGNVGRQATEGLSDIPGDAKARK | not soluble
MGKMNHQDELPLAKVSEVDEAKRQWLQGMRHPVDTVTEPEPAEILAEFIRQHSAAGQLVARAVFLSPPYLVAEEELSVLLESIKQNGDYADIACLTGSKDDYYYSTQAMSENYAAMSLQVVEQDICRAIAHAVRFECQTYPRPYKVAMLMQAPYYFQEAQIEAAIAAMDVAPEYADIRQVESSTAVLYLFSERFMTYGKAYGLCEWFEVEQFQNP | soluble
MSCQGPVCTNLGLKPGQRLTVKGIIAPNAKSFVMNLGKDSTHLGLHFNPRFDAHGDVNLIVCNSKKMEEWGTEQRETVFPFQKGAPIEITFSINPSDLTVHLPGHQFSFPNRLGLSVFDYFDTHGDFTLRSVSWE | soluble
MGFKQDIATIRGDLRTYAQDIFLAFLNKYPDERRYFKNYVGKSDQELKSMAKFGDHTEKVFNLMMEVADRATDSVPLASDANTLVQMKQHSSLTTGNFEKLFVALVEYMRASGQSFDSQSWDRFGKNLVSALSSAGMK | soluble
MVKSIENVKLTKGLFYNSQKKGNDVILALDIDRLLAPYYEAANLPPKKRSYGGWEEREIRGHSLGHWLSAAAAMYETTGDKALLERIDRAVQELATIQDDVGYVGGVKRAHFDEMFSGEFQVGHFNIAGTWVPWYNLHKLFAGLIDVHQLTGHSLALTVVTKLADWAKKGTDQLTDDQFQRMLICEHGGMNEAMADLYTLTGHKDYLQLAIRFCHWAVLEPLANGIDELEGKHANTQIPKVIGAAKLFEITGDDTYRAIAEFFWRQVTNDRSYIIGGNSNSEHFGPANKETLGVETAETCNTYNMLKLTEHLFRWNRSSQLMDYYEKALYNHILASQDPDSGMKTYFVSLQPGHFKVYSSLEESFWCCFGTGLENPARYTRTIYDRDDRHIYVNLFMASEIHLKDLQVQIRQETNFPETDRTKLTFVKADGVSIKLHIRVPEWVAGPVTARINGKETFSESGADYLTIEREWQKGDEIEVHLPMELRIYEAKDDSHKVGIMYGPIVLAGTFGKDHFPLEHHHHHH | not soluble
MRSIVGDLLLLRLGDVAEGPMNQRLYRAIREAILDGAIAADTRLPATRDLAAELGIARNTVVHVYSQLQAEGYTHSRQGNGTFVTASLPDAYLASGRHARRPAIAAVRPTLSERGARIVDQVSASPYQWGAFMPGVPDLTEFPHQKFGRLFSTLWRNPHPEMLTYAYGGGLPALREALAQHLALTRSIDCDPEQIIITEGSHQAIDLATRILGGHGDLAWIENPGYWGARSVLIANGIRIEPLPVDEEGMQLPAEPVAQPPRFIFVTPSHQYPLGSVMSLARRRQLLALARSWGSWIIEDDYDSEFRFSGRPISSLQGLEPDAPVIYLGTFSKTLYPGLRVGYLVLPKALAGAFQAAHAELYREGHLVTHAVLASFIAEGHYAAHIRRMRMLYGRRRAILVNLIERRLGAQWLHPDSSDAGLHLVLDFPSGLDDKQVMQAAHARGVLTRALSRYYAEGTTPRQGLLLGYACVPENDIARKFELVLDSLAEVAQRSRA | not soluble
STLQFKVGPPFELVRDYCPVVESHTGRTLDLRIIPRIDRGFDHIDEEWVGYKRNYFTLVSTFETANCDLDTFLKSSFDLLVEDSSVESRLRVQYFAIKIKAKNDDDDTEINLVQHTAKRDKGPQFCPSVCPLVPSPLPKHQIIREASNVRNITKTKKYDSTFYLHRNHVNYEEYGVDSLLFSYPEDSIQKVARYERVQFASSISVKKPFQQNKHFSLHVILGAVVDPDTFHGENPGIPYDELALKNGSKGMFVYLQEMKTPPLIIRGRSPSN | soluble

From the DeepSol protein solubility set
